Measured values taken from publication PMC12448856, “Decoding the base flipping mechanism of the SET- and RING-associated (SRA) domain of the epigenetic UHRF1 protein”.

T1: UHRF1 SRA domain (human, UniProt Q96T88 408-643)
T1 sequence: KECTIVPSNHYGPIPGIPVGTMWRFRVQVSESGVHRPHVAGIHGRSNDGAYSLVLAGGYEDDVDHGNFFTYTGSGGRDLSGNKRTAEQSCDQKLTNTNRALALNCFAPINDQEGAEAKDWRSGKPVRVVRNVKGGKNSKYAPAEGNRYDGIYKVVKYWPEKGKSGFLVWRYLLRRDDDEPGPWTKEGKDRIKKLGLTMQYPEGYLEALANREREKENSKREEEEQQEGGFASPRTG

B1: NM duplex, unlabelled (dsDNA)
DNA 1: GGGCCCGCAGGG
DNA 2: CCCTGCGGGCCC
B2: HM duplex, unlabelled (dsDNA)
DNA 1: GGGCCCGCAGGG
DNA 2: CCCTGCGGGCCC
modifications: 5mC at position 6 of strand 1

What was measured:
[1] = target: T1, UHRF1 SRA domain; assay: intrinsic Trp fluorescence titration; 1 uM SRA; 20 mM PBS pH 7.5, 50 mM NaCl, 2.5 mM TCEP, 0.05% PEG 20000, 20 C; duplex 1 uM in anisotropy; details: protein: recombinant; 12 bp duplex
[2] = target: T1, UHRF1 SRA domain; assay: as above; details: protein: recombinant; 12 bp duplex; remark: listed apart in the source

Row | Binder | Ka [1] | Ka [2]
1 | B1 | 1.43 ± 0.07 10^6 M-1 | –
2 | B2 | – | 8.1 ± 0.2 10^6 M-1
